Measurements published in patent US20020123091.

System: PRO256 polypeptide
Sequence (chain, as listed by the source): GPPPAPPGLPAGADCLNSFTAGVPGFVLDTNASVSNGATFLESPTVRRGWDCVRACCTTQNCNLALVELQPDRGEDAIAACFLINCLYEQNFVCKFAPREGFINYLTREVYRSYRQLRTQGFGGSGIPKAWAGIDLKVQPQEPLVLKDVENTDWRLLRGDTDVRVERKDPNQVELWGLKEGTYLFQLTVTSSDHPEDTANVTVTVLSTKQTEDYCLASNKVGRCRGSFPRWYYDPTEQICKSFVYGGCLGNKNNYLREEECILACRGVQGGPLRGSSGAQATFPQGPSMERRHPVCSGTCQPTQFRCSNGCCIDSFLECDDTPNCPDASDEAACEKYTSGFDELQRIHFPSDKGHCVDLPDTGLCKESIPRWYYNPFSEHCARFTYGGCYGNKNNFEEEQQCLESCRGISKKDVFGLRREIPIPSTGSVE

human kallikrein (Haematologic Technologies), sequence (chain, as listed by the source): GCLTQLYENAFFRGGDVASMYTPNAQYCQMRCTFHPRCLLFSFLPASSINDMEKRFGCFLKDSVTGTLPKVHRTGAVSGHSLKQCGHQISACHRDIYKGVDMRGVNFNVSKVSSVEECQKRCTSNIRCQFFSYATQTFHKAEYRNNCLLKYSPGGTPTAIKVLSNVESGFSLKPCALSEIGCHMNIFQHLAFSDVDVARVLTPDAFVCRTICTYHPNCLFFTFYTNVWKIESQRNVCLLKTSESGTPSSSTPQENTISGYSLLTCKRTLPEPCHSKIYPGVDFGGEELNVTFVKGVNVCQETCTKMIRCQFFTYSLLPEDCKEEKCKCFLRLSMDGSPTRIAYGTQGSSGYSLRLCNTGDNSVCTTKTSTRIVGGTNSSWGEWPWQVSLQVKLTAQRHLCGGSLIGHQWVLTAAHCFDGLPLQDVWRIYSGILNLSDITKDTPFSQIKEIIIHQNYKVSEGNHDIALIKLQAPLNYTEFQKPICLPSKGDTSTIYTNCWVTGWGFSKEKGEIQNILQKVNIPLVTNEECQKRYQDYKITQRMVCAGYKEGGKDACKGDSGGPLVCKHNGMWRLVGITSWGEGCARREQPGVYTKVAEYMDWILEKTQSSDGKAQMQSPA

## human kallikrein (Haematologic Technologies)
  kallikrein (40 nM) conversion of ^125I-scHGF into its two chain form, SDS-PAGE/autoradiography, PRO256 at 1 µM: In the presence of PRO256, kallikrein conversion of ^125I-scHGF into its two chain form is inhibited over the 4 hour incubation period compared with the control.
